From patent US20140087995A1 (published 2014)
Numbered stars: 1 amine (or outer) side, 2 acyl side, 3 side chain; on linkers, the order of the positions; unused ones are H or OH. Bridge positions count the residues as written; N and C are the ends. Side chains are listed from the residue outwards. Ends that are not written are not given here. * marks the point of attachment. C20 diacid = O=C(O)CCCCCCCCCCCCCCCCCCC(=O)*; γGlu = O=C(O)[C@H](CCC(=O)[*:2])N[*:1]; AEEA = NCCOCCOCC(=O)O

T1: human amylin receptor (amylin 3(a) receptor: human calcitonin receptor coexpressed with RAMP-3) (human, UniProt P30988 25-474; O60896 24-148)
T1 sequence (looked up) 1: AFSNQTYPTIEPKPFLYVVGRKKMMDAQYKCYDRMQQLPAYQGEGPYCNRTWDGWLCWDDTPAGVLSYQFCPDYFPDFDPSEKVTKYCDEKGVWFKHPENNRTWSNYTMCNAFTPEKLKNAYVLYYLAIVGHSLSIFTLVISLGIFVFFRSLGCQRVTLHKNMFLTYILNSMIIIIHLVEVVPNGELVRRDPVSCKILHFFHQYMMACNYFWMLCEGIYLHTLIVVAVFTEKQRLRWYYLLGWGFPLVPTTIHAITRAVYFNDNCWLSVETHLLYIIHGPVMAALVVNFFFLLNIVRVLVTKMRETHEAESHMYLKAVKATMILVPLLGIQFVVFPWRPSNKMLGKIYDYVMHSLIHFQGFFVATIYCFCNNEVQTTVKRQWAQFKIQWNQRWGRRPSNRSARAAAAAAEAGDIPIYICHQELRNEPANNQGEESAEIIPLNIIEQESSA
T1 sequence (looked up) 2: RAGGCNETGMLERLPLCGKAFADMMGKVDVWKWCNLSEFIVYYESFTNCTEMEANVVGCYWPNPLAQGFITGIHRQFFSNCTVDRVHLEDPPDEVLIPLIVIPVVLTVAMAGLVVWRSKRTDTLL

T2: human calcitonin receptor (human, UniProt P30988 25-474)
T2 sequence (looked up): T1 sequence (looked up) 1

B1: N^ε1-[2-[2-[2-[[2-[2-[2-[[(4S)-4-carboxy-4-(19-carboxynonadecanoylamino)butanoyl]amino]ethoxy]ethoxy]acetyl]amino]ethoxy]ethoxy]acetyl]-[Arg17,Pro21,Pro27,Pro31 … (peptide)
peptide: K([AEEA-AEEA-γGlu-C20 diacid])CNTATCATQRLANFLRHSSPNFGAIPSSTPVGSNTY-NH2
modifications: disulfide 2-7; N-terminus assumed
SMILES: CC[C@H](C)[C@H](NC(=O)[C@H](C)NC(=O)CNC(=O)[C@H](Cc1ccccc1)NC(=O)[C@H](CC(N)=O)NC(=O)[C@@H]1CCCN1C(=O)[C@H](CO)NC(=O)[C@H](CO)NC(=O)[C@H](Cc1c[nH]cn1)NC(=O)[C@H](CCCNC(=N)N)NC(=O)[C@H](CC(C)C)NC(=O)[C@H](Cc1ccccc1)NC(=O)[C@H](CC(N)=O)NC(=O)[C@H](C)NC(=O)[C@H](CC(C)C)NC(=O)[C@H](CCCNC(=N)N)NC(=O)[C@H](CCC(N)=O)NC(=O)[C@@H](NC(=O)[C@H](C)NC(=O)[C@@H]1CSSC[C@H](NC(=O)[C@@H](N)CCCCNC(=O)COCCOCCNC(=O)COCCOCCNC(=O)CC[C@H](NC(=O)CCCCCCCCCCCCCCCCCCC(=O)O)C(=O)O)C(=O)N[C@@H](CC(N)=O)C(=O)N[C@@H]([C@@H](C)O)C(=O)N[C@@H](C)C(=O)N[C@@H]([C@@H](C)O)C(=O)N1)[C@@H](C)O)C(=O)N1CCC[C@H]1C(=O)N[C@@H](CO)C(=O)N[C@@H](CO)C(=O)N[C@H](C(=O)N1CCC[C@H]1C(=O)N[C@H](C(=O)NCC(=O)N[C@@H](CO)C(=O)N[C@@H](CC(N)=O)C(=O)N[C@H](C(=O)N[C@@H](Cc1ccc(O)cc1)C(N)=O)[C@@H](C)O)C(C)C)[C@@H](C)O
notes: also called compound 96
B2: N^ε1-[2-[2-[2-[[2-[2-[2-[[(4S)-4-carboxy-4-(19-carboxynonadecanoylamino)butanoyl]amino]ethoxy]ethoxy]acetyl]amino]ethoxy]ethoxy]acetyl]-[Arg17,Pro21,Pro27,Pro34 … (peptide)
peptide: K([AEEA-AEEA-γGlu-C20 diacid])CNTATCATQRLANFLRHSSPNFGAIPSSTNVGPNTY-NH2
modifications: disulfide 2-7; N-terminus assumed
SMILES: CC[C@H](C)[C@H](NC(=O)[C@H](C)NC(=O)CNC(=O)[C@H](Cc1ccccc1)NC(=O)[C@H](CC(N)=O)NC(=O)[C@@H]1CCCN1C(=O)[C@H](CO)NC(=O)[C@H](CO)NC(=O)[C@H](Cc1c[nH]cn1)NC(=O)[C@H](CCCNC(=N)N)NC(=O)[C@H](CC(C)C)NC(=O)[C@H](Cc1ccccc1)NC(=O)[C@H](CC(N)=O)NC(=O)[C@H](C)NC(=O)[C@H](CC(C)C)NC(=O)[C@H](CCCNC(=N)N)NC(=O)[C@H](CCC(N)=O)NC(=O)[C@@H](NC(=O)[C@H](C)NC(=O)[C@@H]1CSSC[C@H](NC(=O)[C@@H](N)CCCCNC(=O)COCCOCCNC(=O)COCCOCCNC(=O)CC[C@H](NC(=O)CCCCCCCCCCCCCCCCCCC(=O)O)C(=O)O)C(=O)N[C@@H](CC(N)=O)C(=O)N[C@@H]([C@@H](C)O)C(=O)N[C@@H](C)C(=O)N[C@@H]([C@@H](C)O)C(=O)N1)[C@@H](C)O)C(=O)N1CCC[C@H]1C(=O)N[C@@H](CO)C(=O)N[C@@H](CO)C(=O)N[C@H](C(=O)N[C@@H](CC(N)=O)C(=O)N[C@H](C(=O)NCC(=O)N1CCC[C@H]1C(=O)N[C@@H](CC(N)=O)C(=O)N[C@H](C(=O)N[C@@H](Cc1ccc(O)cc1)C(N)=O)[C@@H](C)O)C(C)C)[C@@H](C)O
notes: also called compound 98
B3: N^ε1-[2-[2-[2-[[(4S)-4-carboxy-4-(19-carboxynonadecanoylamino)butanoyl]amino]ethoxy]ethoxy]acetyl]-[His14,Arg17,Pro21,Pro27,His34]-h-amylin (peptide)
peptide: K([AEEA-γGlu-C20 diacid])CNTATCATQRLAHFLRHSSPNFGAIPSSTNVGHNTY-NH2
modifications: disulfide 2-7; N-terminus assumed
SMILES: CC[C@H](C)[C@H](NC(=O)[C@H](C)NC(=O)CNC(=O)[C@H](Cc1ccccc1)NC(=O)[C@H](CC(N)=O)NC(=O)[C@@H]1CCCN1C(=O)[C@H](CO)NC(=O)[C@H](CO)NC(=O)[C@H](Cc1c[nH]cn1)NC(=O)[C@H](CCCNC(=N)N)NC(=O)[C@H](CC(C)C)NC(=O)[C@H](Cc1ccccc1)NC(=O)[C@H](Cc1c[nH]cn1)NC(=O)[C@H](C)NC(=O)[C@H](CC(C)C)NC(=O)[C@H](CCCNC(=N)N)NC(=O)[C@H](CCC(N)=O)NC(=O)[C@@H](NC(=O)[C@H](C)NC(=O)[C@@H]1CSSC[C@H](NC(=O)[C@@H](N)CCCCNC(=O)COCCOCCNC(=O)CC[C@H](NC(=O)CCCCCCCCCCCCCCCCCCC(=O)O)C(=O)O)C(=O)N[C@@H](CC(N)=O)C(=O)N[C@@H]([C@@H](C)O)C(=O)N[C@@H](C)C(=O)N[C@@H]([C@@H](C)O)C(=O)N1)[C@@H](C)O)C(=O)N1CCC[C@H]1C(=O)N[C@@H](CO)C(=O)N[C@@H](CO)C(=O)N[C@H](C(=O)N[C@@H](CC(N)=O)C(=O)N[C@H](C(=O)NCC(=O)N[C@@H](Cc1c[nH]cn1)C(=O)N[C@@H](CC(N)=O)C(=O)N[C@H](C(=O)N[C@@H](Cc1ccc(O)cc1)C(N)=O)[C@@H](C)O)C(C)C)[C@@H](C)O
notes: also called compound 80
B4: N^ε1-[2-[2-[2-[[(4S)-4-carboxy-4-(19-carboxynonadecanoylamino)butanoyl]amino]ethoxy]ethoxy]acetyl]-[Arg14,Arg17,Pro21,Pro27]-h-amylin (peptide)
peptide: K([AEEA-γGlu-C20 diacid])CNTATCATQRLARFLRHSSPNFGAIPSSTNVGSNTY-NH2
modifications: disulfide 2-7; N-terminus assumed
SMILES: CC[C@H](C)[C@H](NC(=O)[C@H](C)NC(=O)CNC(=O)[C@H](Cc1ccccc1)NC(=O)[C@H](CC(N)=O)NC(=O)[C@@H]1CCCN1C(=O)[C@H](CO)NC(=O)[C@H](CO)NC(=O)[C@H](Cc1c[nH]cn1)NC(=O)[C@H](CCCNC(=N)N)NC(=O)[C@H](CC(C)C)NC(=O)[C@H](Cc1ccccc1)NC(=O)[C@H](CCCNC(=N)N)NC(=O)[C@H](C)NC(=O)[C@H](CC(C)C)NC(=O)[C@H](CCCNC(=N)N)NC(=O)[C@H](CCC(N)=O)NC(=O)[C@@H](NC(=O)[C@H](C)NC(=O)[C@@H]1CSSC[C@H](NC(=O)[C@@H](N)CCCCNC(=O)COCCOCCNC(=O)CC[C@H](NC(=O)CCCCCCCCCCCCCCCCCCC(=O)O)C(=O)O)C(=O)N[C@@H](CC(N)=O)C(=O)N[C@@H]([C@@H](C)O)C(=O)N[C@@H](C)C(=O)N[C@@H]([C@@H](C)O)C(=O)N1)[C@@H](C)O)C(=O)N1CCC[C@H]1C(=O)N[C@@H](CO)C(=O)N[C@@H](CO)C(=O)N[C@H](C(=O)N[C@@H](CC(N)=O)C(=O)N[C@H](C(=O)NCC(=O)N[C@@H](CO)C(=O)N[C@@H](CC(N)=O)C(=O)N[C@H](C(=O)N[C@@H](Cc1ccc(O)cc1)C(N)=O)[C@@H](C)O)C(C)C)[C@@H](C)O
notes: also called compound 82
B5: N^ε1-[2-[2-[2-[[(4S)-4-carboxy-4-(19-carboxynonadecanoylamino)butanoyl]amino]ethoxy]ethoxy]acetyl]-[Arg17,Pro21,Pro27,Arg34]-h-amylin (peptide)
peptide: K([AEEA-γGlu-C20 diacid])CNTATCATQRLANFLRHSSPNFGAIPSSTNVGRNTY-NH2
modifications: disulfide 2-7; N-terminus assumed
SMILES: CC[C@H](C)[C@H](NC(=O)[C@H](C)NC(=O)CNC(=O)[C@H](Cc1ccccc1)NC(=O)[C@H](CC(N)=O)NC(=O)[C@@H]1CCCN1C(=O)[C@H](CO)NC(=O)[C@H](CO)NC(=O)[C@H](Cc1c[nH]cn1)NC(=O)[C@H](CCCNC(=N)N)NC(=O)[C@H](CC(C)C)NC(=O)[C@H](Cc1ccccc1)NC(=O)[C@H](CC(N)=O)NC(=O)[C@H](C)NC(=O)[C@H](CC(C)C)NC(=O)[C@H](CCCNC(=N)N)NC(=O)[C@H](CCC(N)=O)NC(=O)[C@@H](NC(=O)[C@H](C)NC(=O)[C@@H]1CSSC[C@H](NC(=O)[C@@H](N)CCCCNC(=O)COCCOCCNC(=O)CC[C@H](NC(=O)CCCCCCCCCCCCCCCCCCC(=O)O)C(=O)O)C(=O)N[C@@H](CC(N)=O)C(=O)N[C@@H]([C@@H](C)O)C(=O)N[C@@H](C)C(=O)N[C@@H]([C@@H](C)O)C(=O)N1)[C@@H](C)O)C(=O)N1CCC[C@H]1C(=O)N[C@@H](CO)C(=O)N[C@@H](CO)C(=O)N[C@H](C(=O)N[C@@H](CC(N)=O)C(=O)N[C@H](C(=O)NCC(=O)N[C@@H](CCCNC(=N)N)C(=O)N[C@@H](CC(N)=O)C(=O)N[C@H](C(=O)N[C@@H](Cc1ccc(O)cc1)C(N)=O)[C@@H](C)O)C(C)C)[C@@H](C)O
notes: also called compound 78
B6: N^ε1-[2-[2-[2-[[(4S)-4-carboxy-4-(19-carboxynonadecanoylamino)butanoyl]amino]ethoxy]ethoxy]acetyl]-[His14,Arg17,Pro21,Pro27,Arg34]-h-amylin (peptide)
peptide: K([AEEA-γGlu-C20 diacid])CNTATCATQRLAHFLRHSSPNFGAIPSSTNVGRNTY-NH2
modifications: disulfide 2-7; N-terminus assumed
SMILES: CC[C@H](C)[C@H](NC(=O)[C@H](C)NC(=O)CNC(=O)[C@H](Cc1ccccc1)NC(=O)[C@H](CC(N)=O)NC(=O)[C@@H]1CCCN1C(=O)[C@H](CO)NC(=O)[C@H](CO)NC(=O)[C@H](Cc1c[nH]cn1)NC(=O)[C@H](CCCNC(=N)N)NC(=O)[C@H](CC(C)C)NC(=O)[C@H](Cc1ccccc1)NC(=O)[C@H](Cc1c[nH]cn1)NC(=O)[C@H](C)NC(=O)[C@H](CC(C)C)NC(=O)[C@H](CCCNC(=N)N)NC(=O)[C@H](CCC(N)=O)NC(=O)[C@@H](NC(=O)[C@H](C)NC(=O)[C@@H]1CSSC[C@H](NC(=O)[C@@H](N)CCCCNC(=O)COCCOCCNC(=O)CC[C@H](NC(=O)CCCCCCCCCCCCCCCCCCC(=O)O)C(=O)O)C(=O)N[C@@H](CC(N)=O)C(=O)N[C@@H]([C@@H](C)O)C(=O)N[C@@H](C)C(=O)N[C@@H]([C@@H](C)O)C(=O)N1)[C@@H](C)O)C(=O)N1CCC[C@H]1C(=O)N[C@@H](CO)C(=O)N[C@@H](CO)C(=O)N[C@H](C(=O)N[C@@H](CC(N)=O)C(=O)N[C@H](C(=O)NCC(=O)N[C@@H](CCCNC(=N)N)C(=O)N[C@@H](CC(N)=O)C(=O)N[C@H](C(=O)N[C@@H](Cc1ccc(O)cc1)C(N)=O)[C@@H](C)O)C(C)C)[C@@H](C)O
notes: also called compound 84

The binders below were run against T1, human amylin receptor (amylin 3(a) …) (assay: cell-based or functional assay).

hAmylin-R funct. EC50 (pM) | Binder
181 | B1
84 | B2
139 | B3
215 | B4
316 | B5
169 | B6

These binders were tested against T2, human calcitonin receptor (assay: cell-based or functional assay).

Ratio hCT/hAmylin funct. | hCTR funct. EC50 (pM) | Binder
21 | 3800 | B1
19.5 | 1630 | B2
15.4 | 2140 | B3
– | 12700 | B4
– | 8160 | B5
– | 5490 | B6
